Measurements taken from publication PMC2704292.

Molecular target: actin of the thin filaments of rabbit psoas myofibrils (rabbit (endogenous in psoas myofibrils)) (UniProt P68135)
Test: co-sedimentation

## rabbit fast skeletal tropomyosin (from UniProt P58772 1-284; P58776 1-284) (natural protein)
  average level of replacement of Tm in reconstituted myofibrils: 96%
